Measured values as given in the supplement of paper PMC7125110.
± gives the standard error. For some of these results: Fewer inactive variants are shown than the library holds.

B1: glmS ribozyme (parent)
chain: AUAAAAGCGCCAGAACUACAGAAAUGUAGUUGACGAGGAGGAGGUUUAUCGAAUUUUCGGCGGAUGCCUCCAAA

Key:
Settings in all cases: with glucosamine-6-phosphate
glucosamine-6-phosphate [1] = variants of: B1; assay: kcat; higher = faster cleavage; RNA array
Procedure, shortened: (§1)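 Tiles of sequenced MiSeq chips were imaged over ~14 h at 37 °C. On them, barcoded ribozyme variants had been transcribed in situ by E. coli RNA polymerase and were tracked via a hybridised Cy3 probe while glucosamine-6-phosphate (40 μM to 10 mM) in HEPES/KCl/Mg(OAc)2 buffer flowed in. Per-tile medians, normalised to baseline and to non-cleaving reference variants, were fit to one- or two-exponential decays for kobs, and weighted Michaelis–Menten fits gave kcat and KM.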

glucosamine-6-phosphate [2] = variants of: B1; assay: self-cleavage kobs at 40 uM GlcN6P; higher = faster cleavage; RNA array
Procedure, shortened: as §1

glucosamine-6-phosphate [3] = variants of: B1; assay: self-cleavage kobs at 640 uM GlcN6P; higher = faster cleavage; RNA array
Procedure, shortened: as §1

glucosamine-6-phosphate [4] = variants of: B1; assay: self-cleavage kobs at 2500 uM GlcN6P; higher = faster cleavage; RNA array
Procedure, shortened: as §1

glucosamine-6-phosphate [5] = variants of: B1; assay: self-cleavage kobs at 10000 uM GlcN6P; higher = faster cleavage; RNA array
Procedure, shortened: as §1

glucosamine-6-phosphate [6] = variants of: B1; assay: KM; higher = weaker cofactor use; RNA array
Procedure, shortened: as §1

glucosamine-6-phosphate [7] = variants of: B1; assay: self-cleavage kobs at 160 uM GlcN6P; higher = faster cleavage; RNA array
Procedure, shortened: as §1

| Variant | kcat (glucosamine-6-phosphate [1]) [s⁻¹] | self-cleavage kobs at 40 uM GlcN6P (glucosamine-6-phosphate [2]) [s⁻¹] | self-cleavage kobs at 640 uM GlcN6P (glucosamine-6-phosphate [3]) [s⁻¹] | self-cleavage kobs at 2500 uM GlcN6P (glucosamine-6-phosphate [4]) [s⁻¹] | self-cleavage kobs at 10000 uM GlcN6P (glucosamine-6-phosphate [5]) [s⁻¹] | KM (glucosamine-6-phosphate [6]) [mM] | self-cleavage kobs at 160 uM GlcN6P (glucosamine-6-phosphate [7]) [s⁻¹] |
| --- | --- | --- | --- | --- | --- | --- | --- |
| A14C G44C C67G | 0.00155 ± 0.00052 | 3.15e-05 ± 1.2e-05 | 0.000389 ± 0.0001 | 0.000548 ± 0.00015 | 0.00139 ± 0.00022 | – | – |
| U31A C58G | 0.000589 ± 0.00022 | – | – | 3.87e-05 ± 1.3e-05 | 0.00013 ± 1.9e-05 | – | – |
| U31A G44U | 0.00017 ± 9.6e-06 | – | – | 6.38e-05 ± 1.6e-05 | 0.000122 ± 1.8e-05 | 3.96 ± 0.53 | – |
| A12C U57C | 0.000312 ± 5.1e-05 | – | 4.73e-05 ± 1.2e-05 | 9.32e-05 ± 1.7e-05 | 0.000214 ± 2.2e-05 | 4.85 ± 1.6 | – |
| A12C U57A | 0.000102 ± 2.4e-05 | – | 5.75e-05 ± 1.5e-05 | 6.14e-05 ± 1.2e-05 | 0.000113 ± 1.9e-05 | – | – |
| U47G C50A C67U | 4.13e-05 ± 1.8e-05 | – | 6.02e-05 ± 2.6e-05 | 7.44e-05 ± 3.1e-05 | – | – | – |
| U31G U65G | 0.00259 ± 0.00018 | – | 0.000375 ± 5.5e-05 | 0.000924 ± 0.00017 | 0.00184 ± 0.00019 | 4.14 ± 0.44 | 9.35e-05 ± 1.7e-05 |
| U47C U56C A64G | 6.84e-05 ± 1.6e-05 | – | 6.85e-05 ± 1.9e-05 | 5.93e-05 ± 1.5e-05 | – | – | – |
| C58U A64G | 0.00011 ± 1.9e-05 | – | – | 5.74e-05 ± 1.1e-05 | 8.51e-05 ± 1.1e-05 | – | – |
| U30C C71U | 0.000335 ± 3.4e-05 | – | 9.35e-05 ± 1e-05 | 0.000195 ± 1.6e-05 | 0.000307 ± 2.3e-05 | 1.53 ± 0.34 | 4.2e-05 ± 6.8e-06 |
| U30C C70A | 5.42e-05 ± 6.4e-06 | – | 7.04e-05 ± 2.5e-05 | 5.57e-05 ± 1.8e-05 | 4.43e-05 ± 1.5e-05 | – | 5.93e-05 ± 2.3e-05 |
| G38U A64U | < 1e-05 | < 1e-05 | < 1e-05 | < 1e-05 | – | – | – |
| U31C U65C | 5e-05 ± 2.5e-06 | – | 3.88e-05 ± 1.4e-05 | 4.75e-05 ± 9.5e-06 | 4.78e-05 ± 6.9e-06 | 0.238 ± 0.12 | – |
| G9U C34G C58G C68U | 4.14e-05 ± 1.9e-05 | – | – | – | – | – | 5.81e-05 ± 2.8e-05 |
| U45G C68G | 0.000114 ± 1.6e-05 | – | 2.89e-05 ± 1.3e-05 | 4.55e-05 ± 1.3e-05 | 8.96e-05 ± 1.3e-05 | 2.98 ± 1.1 | – |
| G43U U49C | < 1e-05 | < 1e-05 | < 1e-05 | < 1e-05 | – | – | < 1e-05 |
| C50A C61U | < 1e-05 | – | < 1e-05 | – | – | – | – |
| A33C A39C | 3.87e-05 ± 3.3e-06 | – | – | 3.92e-05 ± 8e-06 | 3.54e-05 ± 7.3e-06 | – | – |
